Assay results: article PMC11291249, “Investigating the biosynthesis and roles of the auxin phenylacetic acid during Pseudomonas syringae-Arabidopsis thaliana pathogenesis” (Frontiers in Plant Science, 2024)

What was measured:
[1] = test system: NC(=O)c1ccc[n+]([C@@H]2O[C@H](COP(=O)(O)OP(=O)(O)OC[C@H]3O[C@@H](n4cnc5c(N)ncnc54)[C@H](O)[C@@H]3O)[C@@H](O)[C@H]2O)c1; assay: purified protein; conditions: 1 mM PAAld, 100 mM Tris-HCl pH 8.0, 100 mM KCl, 25 °C, varied: cofactor
O=CCc1ccccc1 = assay: purified protein; conditions: 5 mM NAD+, 100 mM Tris-HCl pH 8.0, 100 mM KCl, 25 °C

## AldA (Pseudomonas syringae pv. tomato str. DC3000)
[1]
  Km: 11.2 ± 1.2 µM
  kcat: 1.4 ± 0.0183 s⁻¹
  kcat/Km: 125000 M⁻¹ s⁻¹
O=CCc1ccccc1
  Km: 645 ± 113 µM
  kcat: 18.7 ± 1.3 s⁻¹
  kcat/Km: 29000 M⁻¹ s⁻¹
